According to patent publication US8716221B2, “Modified exendins and uses thereof” (priority 2005, dated 2014):
Like-named read-outs stand apart in the source and are kept apart here. Where no end group is shown, it is not given here. [ ]: non-standard residue; d: D form. code ∗ = not defined here

Tests used:
[1] = type: physicochemical; details: for 0 day Purity (%) / 5 days Purity (%) / 5 days Relative Purity (%) / 10 days Purity (%) / 10 days Relative Purity (%) / 15 days Purity (%) / 15 days Relative Purity (%): pH 4.5, 40° C.; for 5 days Relative Purity (%) / 10 days Relative Purity (%) / 15 days Relative Purity (%): compared with the corresponding sample at 0 day
Method: (§1) 1 mg of each sample was dissolved in a buffer solution, which contains 150 mM sodium chloride and 20 mM phosphate, from which a solution of concentration of 4 mg/ml was prepared and its pH is 8.0. The testing sample solutions were placed in a thermostat of 40° C. LC-MS was used to determine the purity of polypeptide. Correlation between the reduction ratio of the main peak area and time reflects the chemical stability of the polypeptide. Expressed as a percentage, purity is the percentage corresponding to the target peak in the total of all peaks including impurities. Using LC, the main peak was separated from any impurities, and the relative percentages of main peak and impurities at times 0 (before incubation at 40° C. at pH 4.5-8) and after 5, 10 and 15 days were determined. MS was used to identify the main peak as the target molecule. The main peak area plus the peak areas of any impurities gives a total equal to 100%, with relative purity calculated at a certain time (5, 10 or 15 days) against the purity at time 0 compared to the purity before incubation at 40° C. at pH 4.5-8.
(§2) The following method was used to determine the chemical stability of various modified exendins having a sequence identity of at least 90% to SEQ ID no. 17 under acidic/basic conditions. […] Purity was determined by LC-MS as percentage of the target peak in the total of all peaks including impurities as described in example 3.
4 mg Exendin-4 derivative polypeptide (described in Table 2 below) was dissolved in 20 mM sodium buffer (pH 4.5) so as to prepare a solution at concentration of 4 mg/ml. The testing sample solutions were placed in a thermostat setting at 40° C. LC-MS was used to determine the purity of polypeptide. The chemical stability of the polypeptide was expressed as the correlation between the reduction ratio of the main peak area and time and determined as described above.

[2] = Stability of Exendin-4 derivatives under basic conditions (PBS pH 7.4, 40° C., LC-MS purity); type: physicochemical; details: for 5 days Relative Purity (%) / 10 days Relative Purity (%): compared with the corresponding sample at 0 day
Method: as §1, §2
4 mg Exendin-4 derivative polypeptide (described in Table 3 above) was taken and dissolved in PBS buffer (KH2PO4 0.27 g/L, Na2HPO4 1.42 g/L, NaCl 8 g/L and KCl 0.2 g/L, pH 7.4) so as to prepare a solution at concentration of 4 mg/ml. The testing sample solutions were placed in a thermostat setting at 40° C. LC-MS was used to determine the purity of polypeptide. The chemical stability of the polypeptide was expressed as the correlation between the reduction ratio of the main peak area and time.

[3] = Test for the stability of the polypeptide (LC-MS purity, pH 8.0, 40° C.); type: physicochemical; details: for Purity (%) 0 day: 4 mg/ml
Method: The following method was used to determine the chemical stability of some polypeptides in the present invention.
as §1

normal mice = experiment: Oral glucose tolerance test in normal mice after subcutaneous injection; type: in vivo; details: unit not given
Description: Polypeptide of SEQ ID NO: 25 was modified with polyethylene glycol of molecular weight of about 40,000 (sample 4 as described in Examples 3 and 4 above).

[4] = first day after s.c. injection, dosage (20)
[5] = first day after s.c. injection, dosage (80)
[6] = third day after s.c. injection, dosage (20)
[7] = third day after s.c. injection, dosage (80)

For “HGEGTFTSDLSKQMEEEAVRLFIEWLKQGGPSSGAPPPK* [Sample 5]”, the “0 day Purity (%)” value [1] was 98.3%, the “5 days Purity (%)” value [1] was 96.3% and the “5 days Relative Purity (%)” value [1] was 97.97%. The “10 days Purity (%)” value [1] was 95.1%, the “10 days Relative Purity (%)” value [1] was 96.74% and the “15 days Purity (%)” value [1] was 94.1%. The “15 days Relative Purity (%)” value [1] was 95.73%, the “0 day Purity (%)” value [2] was 98.3% and the “5 days Purity (%)” value [2] was 95.7%. For the same substance, the “5 days Relative Purity (%)” value [2] was 97.36%, the “10 days Purity (%)” value [2] was 94.2% and the “10 days Relative Purity (%)” value [2] was 95.83%.
With “HdAEGTFTSDL SKQMEEEAVR LFIEWLKNGG PSSGAPPPC-NH2 [Sample 2-1]” the “stability of the polypeptide (conclusion in words)” value [3] was “not very stable”, the “Purity (%) 0 day” value [3] was 98% and the “Purity (%) 5th day” value [3] was 93.1%. The “Purity (%) 10th day” value [3] was 90.4%, the “Purity (%) 15th day” value [3] was 88.2% and the “0 day Purity (%)” value [1] was 98.0%. The “5 days Purity (%)” value [1] was 93.8%, the “5 days Relative Purity (%)” value [1] was 95.71% and the “10 days Purity (%)” value [1] was 89.6%. For the same substance, the “10 days Relative Purity (%)” value [1] was 91.43%, the “15 days Purity (%)” value [1] was 86.7% and the “15 days Relative Purity (%)” value [1] was 88.47%. The main impurity ([1]; stability test, cysteine at C-terminal end) was “dimers formed by oxidization of the mercapto-groups”.
For “HdAEGTFTSDL SKQMEEEAVR LFIEWLKNGG PSSGAPPPC-PEG40K [Sample 4]”, the “stability of the polypeptide (conclusion in words)” value [3] was “very stable”, the “Purity (%) 0 day” value [3] was 99.7% and the “Purity (%) 5th day” value [3] was 99.4%. For the same substance, the “Purity (%) 10th day” value [3] was 99.0%, the “Purity (%) 15th day” value [3] was 99.3% and the “stability compared with samples 2-1 and 9-1” value [1] was “even higher stability”. The “0 day Purity (%)” value [1] was 99.7%, the “5 days Purity (%)” value [1] was 99.4% and the “5 days Relative Purity (%)” value [1] was 99.70%. The “10 days Purity (%)” value [1] was 99.3%, the “10 days Relative Purity (%)” value [1] was 99.60% and the “15 days Purity (%)” value [1] was 99.0%. The “15 days Relative Purity (%)” value [1] was 99.30%, the “0 day Purity (%)” value [2] was 99.7% and the “5 days Purity (%)” value [2] was 99.0%. The “5 days Relative Purity (%)” value [2] was 99.30%, the “10 days Purity (%)” value [2] was 98.2% and the “10 days Relative Purity (%)” value [2] was 98.50%. For the same substance, the “AUC (area under the curve of the blood glucose level)” value (“AUC” below) (normal mice; [4]) was 176.4 ± 22.0 mg·h/dL, the “Blood Glucose level 0 min” value (normal mice; [4]) was 116.6 ± 10.8 mg/dL and the “Blood Glucose level 30 min” value (normal mice; [4]) was 95.7 ± 9.9 mg/dL. For the same substance, the “Blood Glucose level 60 min” value (normal mice; [4]) was 88.9 ± 28.6 mg/dL, the “Blood Glucose level 120 min” value (normal mice; [4]) was 65.4 ± 5.1 mg/dL and the “AUC” value (normal mice; [5]) was 166.6 ± 16.7 mg·h/dL. The “Blood Glucose level 0 min” value (normal mice; [5]) was 122.2 ± 9.1 mg/dL, the “Blood Glucose level 30 min” value (normal mice; [5]) was 92.1 ± 12.4 mg/dL and the “Blood Glucose level 60 min” value (normal mice; [5]) was 76.7 ± 8.7 mg/dL. The “Blood Glucose level 120 min” value (normal mice; [5]) was 64.9 ± 7.5 mg/dL, the “AUC” value (normal mice; [6]) was 253.6 ± 24.4 mg·h/dL and the “Blood Glucose level 0 min” value (normal mice; [6]) was 96.2 ± 8.6 mg/dL. The “Blood Glucose level 30 min” value (normal mice; [6]) was 172.8 ± 33.2 mg/dL, the “Blood Glucose level 60 min” value (normal mice; [6]) was 132.1 ± 12.4 mg/dL and the “Blood Glucose level 120 min” value (normal mice; [6]) was 88.3 ± 7.8 mg/dL. The “AUC” value (normal mice; [7]) was 217.0 ± 21.9 mg·h/dL, the “Blood Glucose level 0 min” value (normal mice; [7]) was 89.5 ± 9.3 mg/dL and the “Blood Glucose level 30 min” value (normal mice; [7]) was 149.3 ± 32.4 mg/dL. The “Blood Glucose level 60 min” value (normal mice; [7]) was 108.6 ± 8.8 mg/dL and the “Blood Glucose level 120 min” value (normal mice; [7]) was 77.1 ± 8.4 mg/dL.
For “HdAEGTFTSDL SKQMEEEAVR LFIEWLVKGG PSSGAPPPK* (H[dA]EGTFTSDLSKQMEEEAVRLFIEWLVKGGPSSGAPPPK(code ∗); reading uncertain; also: C-terminal modification (*)) [Sample 11]”, the “0 day Purity (%)” value [1] was 98.3%, the “5 days Purity (%)” value [1] was 96.7% and the “5 days Relative Purity (%)” value [1] was 98.37%. For the same substance, the “10 days Purity (%)” value [1] was 95.9%, the “10 days Relative Purity (%)” value [1] was 97.56% and the “15 days Purity (%)” value [1] was 94.8%. The “15 days Relative Purity (%)” value [1] was 96.44%, the “0 day Purity (%)” value [2] was 98.3% and the “5 days Purity (%)” value [2] was 97.1%. The “5 days Relative Purity (%)” value [2] was 98.78%, the “10 days Purity (%)” value [2] was 96.4% and the “10 days Relative Purity (%)” value [2] was 98.07%.
With “HdAEGTFTSDL SKQNleEEEAVR LFIEWLKQGG PSSGAPPPS-NH2 [Sample 3]” the “Purity (%) 0 day” value [3] was 98.9%, the “Purity (%) 5th day” value [3] was 98.8% and the “Purity (%) 10th day” value [3] was 98.8%. For the same substance, the “Purity (%) 15th day” value [3] was 98.8%, the “0 day Purity (%)” value [1] was 98.9% and the “5 days Purity (%)” value [1] was 98.7%. The “5 days Relative Purity (%)” value [1] was 99.80%, the “10 days Purity (%)” value [1] was 98.7% and the “10 days Relative Purity (%)” value [1] was 99.80%. The “15 days Purity (%)” value [1] was 98.6%, the “15 days Relative Purity (%)” value [1] was 99.70% and the “0 day Purity (%)” value [2] was 98.9%. The “5 days Purity (%)” value [2] was 98.6%, the “5 days Relative Purity (%)” value [2] was 99.70% and the “10 days Purity (%)” value [2] was 98.5%. The “10 days Relative Purity (%)” value [2] was 99.60%.
In the case of “HdAEGTFTTSDL SKQNleEEEAVR LFIEWLKQGG PSSGAPPPC(AM) [Sample 9-2]”, the “0 day Purity (%)” value [1] is reported as 99.0%, the “5 days Purity (%)” value [1] is reported as 98.9% and the “5 days Relative Purity (%)” value [1] is reported as 99.90%. For the same substance, the “10 days Purity (%)” value [1] was 98.8%, the “10 days Relative Purity (%)” value [1] was 99.80% and the “15 days Purity (%)” value [1] was 98.8%. The “15 days Relative Purity (%)” value [1] was 99.80%, the “0 day Purity (%)” value [2] was 99.0% and the “5 days Purity (%)” value [2] was 98.8%. The “5 days Relative Purity (%)” value [2] was 99.80%, the “10 days Purity (%)” value [2] was 98.7% and the “10 days Relative Purity (%)” value [2] was 99.70%.
With “HdAEGTFTTSDL SKQNleEEEAVR LFIEWLKQGG PSSGAPPPC-PEG40K [Sample 13]” the “stability compared with samples 2-1 and 9-1” value [1] was “even higher stability”, the “0 day Purity (%)” value [1] was 99.8% and the “5 days Purity (%)” value [1] was 99.6%. For the same substance, the “5 days Relative Purity (%)” value [1] was 99.80%, the “10 days Purity (%)” value [1] was 99.7% and the “10 days Relative Purity (%)” value [1] was 99.90%. For the same substance, the “15 days Purity (%)” value [1] was 99.5%, the “15 days Relative Purity (%)” value [1] was 99.70% and the “0 day Purity (%)” value [2] was 99.8%. The “5 days Purity (%)” value [2] was 99.3%, the “5 days Relative Purity (%)” value [2] was 99.50% and the “10 days Purity (%)” value [2] was 98.9%. The “10 days Relative Purity (%)” value [2] was 99.10%.
